Tests used:
[1] = molecular target: ED-B fibronectin antigen protein (recombinant), bound to CNBr activated sepharose 4B (UniProt P02751); test: ED-B sepharose column, % of total radioactivity bound; Study A; inositol 50 mg/mL; day 7
[2] = molecular target: ED-B fibronectin antigen protein (recombinant), bound to CNBr activated sepharose 4B (UniProt P02751); test: ED-B sepharose column, % of total radioactivity bound; Study A; maltose 50 mg/mL; day 7
[3] = molecular target: ED-B fibronectin antigen protein (recombinant), bound to CNBr activated sepharose 4B (UniProt P02751); test: ED-B sepharose column, % of total radioactivity bound; Study A; inositol 5 mg/mL; day 0
[4] = molecular target: ED-B fibronectin antigen protein (recombinant), bound to CNBr activated sepharose 4B (UniProt P02751); test: ED-B sepharose column, % of total radioactivity bound; Study A; methionine 5 mg/mL; day 3
[5] = molecular target: ED-B fibronectin antigen protein (recombinant), bound to CNBr activated sepharose 4B (UniProt P02751); test: ED-B sepharose column, % of total radioactivity bound; Study B3; ascorbic acid 25 mg/mL; day 2
[6] = molecular target: ED-B fibronectin antigen protein (recombinant), bound to CNBr activated sepharose 4B (UniProt P02751); test: ED-B sepharose column, % of total radioactivity bound; Study A; sodium thiosulfate 5 mg/mL; day 1
[7] = molecular target: ED-B fibronectin antigen protein (recombinant), bound to CNBr activated sepharose 4B (UniProt P02751); test: ED-B sepharose column, % of total radioactivity bound; Study A; inositol 50 mg/mL; day 5
[8] = molecular target: ED-B fibronectin antigen protein (recombinant), bound to CNBr activated sepharose 4B (UniProt P02751); test: ED-B sepharose column, % of total radioactivity bound; Study B3; ascorbic acid 25 mg/mL; day 3
[9] = molecular target: ED-B fibronectin antigen protein (recombinant), bound to CNBr activated sepharose 4B (UniProt P02751); test: ED-B sepharose column, % of total radioactivity bound; Study A; inositol 5 mg/mL; day 7
[10] = molecular target: ED-B fibronectin antigen protein (recombinant), bound to CNBr activated sepharose 4B (UniProt P02751); test: ED-B sepharose column, % of total radioactivity bound; Study A; trolox 5 mg/mL; day 1
[11] = molecular target: ED-B fibronectin antigen protein (recombinant), bound to CNBr activated sepharose 4B (UniProt P02751); test: ED-B sepharose column, % of total radioactivity bound; Study A; sodium thiosulfate 50 mg/mL; day 3
[12] = molecular target: ED-B fibronectin antigen protein (recombinant), bound to CNBr activated sepharose 4B (UniProt P02751); test: ED-B sepharose column, % of total radioactivity bound; Study B3; thioglycerol 10 mg/mL; day 2
[13] = molecular target: ED-B fibronectin antigen protein (recombinant), bound to CNBr activated sepharose 4B (UniProt P02751); test: ED-B sepharose column, % of total radioactivity bound; Study A; methionine 5 mg/mL; day 1
[14] = molecular target: ED-B fibronectin antigen protein (recombinant), bound to CNBr activated sepharose 4B (UniProt P02751); test: ED-B sepharose column, % of total radioactivity bound; Study A; maltose 50 mg/mL; day 5
[15] = molecular target: ED-B fibronectin antigen protein (recombinant), bound to CNBr activated sepharose 4B (UniProt P02751); test: ED-B sepharose column, % of total radioactivity bound; Study A; methionine 25 mg/mL; day 0
[16] = molecular target: ED-B fibronectin antigen protein (recombinant), bound to CNBr activated sepharose 4B (UniProt P02751); test: ED-B sepharose column, % of total radioactivity bound; Study A; inositol 5 mg/mL; day 5
[17] = molecular target: ED-B fibronectin antigen protein (recombinant), bound to CNBr activated sepharose 4B (UniProt P02751); test: ED-B sepharose column, % of total radioactivity bound; Study B3; no-excipient control (PBS); day 5
[18] = molecular target: ED-B fibronectin antigen protein (recombinant), bound to CNBr activated sepharose 4B (UniProt P02751); test: ED-B sepharose column, % of total radioactivity bound; Study B3; human serum albumin 10 mg/mL; day 2
[19] = molecular target: ED-B fibronectin antigen protein (recombinant), bound to CNBr activated sepharose 4B (UniProt P02751); test: ED-B sepharose column, % of total radioactivity bound; Study A; maltose 25 mg/mL; day 0
[20] = molecular target: ED-B fibronectin antigen protein (recombinant), bound to CNBr activated sepharose 4B (UniProt P02751); test: ED-B sepharose column, % of total radioactivity bound; Study A; inositol 25 mg/mL; day 3
[21] = molecular target: ED-B fibronectin antigen protein (recombinant), bound to CNBr activated sepharose 4B (UniProt P02751); test: ED-B sepharose column, % of total radioactivity bound; Study A; inositol 10 mg/mL; day 7
[22] = molecular target: ED-B fibronectin antigen protein (recombinant), bound to CNBr activated sepharose 4B (UniProt P02751); test: ED-B sepharose column, % of total radioactivity bound; Study A; inositol 10 mg/mL; day 0
[23] = molecular target: ED-B fibronectin antigen protein (recombinant), bound to CNBr activated sepharose 4B (UniProt P02751); test: ED-B sepharose column, % of total radioactivity bound; Study B3; inositol 10 mg/mL; day 2
[24] = molecular target: ED-B fibronectin antigen protein (recombinant), bound to CNBr activated sepharose 4B (UniProt P02751); test: ED-B sepharose column, % of total radioactivity bound; Study A; inositol 10 mg/mL; day 1
[25] = molecular target: ED-B fibronectin antigen protein (recombinant), bound to CNBr activated sepharose 4B (UniProt P02751); test: ED-B sepharose column, % of total radioactivity bound; Study A; methionine 10 mg/mL; day 3
[26] = molecular target: ED-B fibronectin antigen protein (recombinant), bound to CNBr activated sepharose 4B (UniProt P02751); test: ED-B sepharose column, % of total radioactivity bound; Study A; sodium thiosulfate 25 mg/mL; day 3
[27] = molecular target: ED-B fibronectin antigen protein (recombinant), bound to CNBr activated sepharose 4B (UniProt P02751); test: ED-B sepharose column, % of total radioactivity bound; Study B3; ascorbic acid 25 mg/mL; day 1
[28] = molecular target: ED-B fibronectin antigen protein (recombinant), bound to CNBr activated sepharose 4B (UniProt P02751); test: ED-B sepharose column, % of total radioactivity bound; Study B3; inositol 10 mg/mL; day 0

UniProt P02751, sequence (P02751 1266-1356 limits assumed): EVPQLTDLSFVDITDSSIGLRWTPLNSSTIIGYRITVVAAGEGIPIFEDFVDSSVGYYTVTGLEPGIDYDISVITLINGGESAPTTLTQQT
131I L19-SIP (radioiodinated L19 SIP homodimer), sequence (chain): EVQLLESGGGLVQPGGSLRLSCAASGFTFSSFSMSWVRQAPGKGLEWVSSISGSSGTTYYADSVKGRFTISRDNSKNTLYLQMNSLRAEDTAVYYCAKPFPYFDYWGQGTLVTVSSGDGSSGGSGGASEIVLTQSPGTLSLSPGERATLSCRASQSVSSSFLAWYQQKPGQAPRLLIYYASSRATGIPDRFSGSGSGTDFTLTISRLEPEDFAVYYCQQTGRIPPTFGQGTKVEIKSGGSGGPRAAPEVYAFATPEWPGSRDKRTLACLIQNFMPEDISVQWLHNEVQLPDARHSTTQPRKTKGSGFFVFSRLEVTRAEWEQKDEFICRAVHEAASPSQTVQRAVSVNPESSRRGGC
131I L19-SIP (radioiodinated L19 SIP homodimer), sequence (chain): as above

**Q.** Which results are given for “131I L19-SIP (radioiodinated L19 SIP homodimer)”?
**A.** Immunoreactivity (%) [1]: 61.9%; Immunoreactivity (%) [2]: 50.7%; Immunoreactivity (%) [3]: 94.8%; Immunoreactivity (%) [4]: 72.9%; Immunoreactivity (IR) (%) [5]: 75%; Immunoreactivity (%) [6]: 94.4%; Immunoreactivity (%) [7]: 63.7%; Immunoreactivity (IR) (%) [8]: 78.7%; Immunoreactivity (%) [9]: 56.2%; Immunoreactivity (%) [10]: 84.8%; Immunoreactivity (%) [11]: 91.7%; Immunoreactivity (IR) (%) [12]: 58.4%; Immunoreactivity (%) [13]: 88%; Immunoreactivity (%) [14]: 55.6%; Immunoreactivity (%) [15]: 97.2%; Immunoreactivity (%) [16]: 56.2%; Immunoreactivity (IR) (%) [17]: 56.4%; Immunoreactivity (IR) (%) [18]: 59.9%; Immunoreactivity (%) [19]: 93.6%; Immunoreactivity (%) [20]: 68.5%; Immunoreactivity (%) [21]: 60.7%; Immunoreactivity (%) [22]: 93.4%; Immunoreactivity (IR) (%) [23]: 68.8%; Immunoreactivity (%) [24]: 89.5%; Immunoreactivity (%) [25]: 75.7%; Immunoreactivity (%) [26]: 92.3%; Immunoreactivity (IR) (%) [27]: 78%; Immunoreactivity (IR) (%) [28]: 59.5%

— WO2011147762A2
